Experimental data: patent publication US20180271975A1 (MODERNATX, published 2018)

Target: T1, hCMV glycoprotein H (gH) (human cytomegalovirus (Human …, UniProt Q6SW67 24-742))
T1 construct: also called envelope glycoprotein H
T1 sequence: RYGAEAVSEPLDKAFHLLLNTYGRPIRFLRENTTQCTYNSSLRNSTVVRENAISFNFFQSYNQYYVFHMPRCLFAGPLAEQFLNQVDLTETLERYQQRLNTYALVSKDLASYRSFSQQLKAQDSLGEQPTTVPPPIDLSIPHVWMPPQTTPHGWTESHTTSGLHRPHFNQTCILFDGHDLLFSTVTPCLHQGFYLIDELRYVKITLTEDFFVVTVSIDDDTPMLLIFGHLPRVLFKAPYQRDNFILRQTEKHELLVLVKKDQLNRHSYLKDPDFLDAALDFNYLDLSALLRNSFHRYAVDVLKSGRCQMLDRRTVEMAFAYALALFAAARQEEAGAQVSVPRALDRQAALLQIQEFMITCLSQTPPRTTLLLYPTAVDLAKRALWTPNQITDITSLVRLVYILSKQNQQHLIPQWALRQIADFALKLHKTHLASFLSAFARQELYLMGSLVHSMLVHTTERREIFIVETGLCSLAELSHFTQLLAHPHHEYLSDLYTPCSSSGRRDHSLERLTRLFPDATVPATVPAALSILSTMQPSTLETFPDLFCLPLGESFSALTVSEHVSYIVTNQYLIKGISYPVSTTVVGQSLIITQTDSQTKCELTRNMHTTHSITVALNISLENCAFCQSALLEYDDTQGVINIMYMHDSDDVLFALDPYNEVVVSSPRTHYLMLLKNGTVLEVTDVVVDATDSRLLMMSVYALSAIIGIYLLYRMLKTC
Assay: co-expression in HeLa cells, surface gH read by FACS with 3G16

B1: hCMV glycoprotein L (gL) (other)
chain: AAVSVAPTAAEKVPAECPELTRRCLLGEVFEGDKYESWLRPLVNVTGRDGPLSQLIRYRPVTPEAANSVLLDEAFLDTLALLYNNPDQLRALLTLLSSDTAPRWMTVMRGYSECGDGSPAVYTCVDDLCRGYDLTRLSYGRSIFTEHVLGFELVPPSLFNVVVAIRNEATRTNRAVRLPVSTAAAPEGITLFYGLYNAVKEFCLRHQLDPPLLRHLDKYYAGLPPELKQTRVNLPAHSRYGPQAVDAR
binding result: binds
